These results are taken from paper PMC2873776 (Biochemistry, 2010).

This series deals with the molecule itself. The experiment in a line: pulsed dipolar ESR spectroscopy.

B1: Tm14C N125C homodimer, spin-labeled (domain or fragment)
chain: RRIEEVKERFVNLNRLFQELVGDFQAKSDQLVSVIQDMEKISENIMEELKKSGTNVDQIVERVKEASSQIGETLENIRSIEKLIQCIMRIARETNILALNATIEAARAGEAGKGFMIVANEVQNLSNETNEVTKQIVEKAREILESSQRSLENLEFMANLFETVGKTLQNMVRF
modifications: MTSSL nitroxide spin label on Cys125
By stoichiometry N is commonly meant a count of units in the complex or per binding partner. With B1, the “stoichiometry N” value amounted to 2.
